Values of other authors as cited in publication PMC7072806.
pKd: −log10 of the molar value. Read-outs that look alike come from different tables or passages of the source.

Experiments:
CCR5 (Homo sapiens) [1] = biological target: CCR5 (Homo sapiens) (UniProt P51681)
CCR5 (Homo sapiens) [2] = biological target: CCR5 (Homo sapiens) (UniProt P51681); assay: SPR

Sequence of UniProt P51681 (P51681 whole entry): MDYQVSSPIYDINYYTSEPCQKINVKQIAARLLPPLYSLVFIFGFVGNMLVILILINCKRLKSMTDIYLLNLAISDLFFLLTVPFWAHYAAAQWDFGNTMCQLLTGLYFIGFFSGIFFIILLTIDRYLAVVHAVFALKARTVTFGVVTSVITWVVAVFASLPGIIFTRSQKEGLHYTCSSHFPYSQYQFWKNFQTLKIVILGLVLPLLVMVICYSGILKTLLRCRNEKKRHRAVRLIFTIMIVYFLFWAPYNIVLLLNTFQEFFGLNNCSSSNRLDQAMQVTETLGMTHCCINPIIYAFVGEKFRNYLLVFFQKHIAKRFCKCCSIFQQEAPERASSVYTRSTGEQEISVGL

| Substance | pKd (CCR5 (Homo sapiens) [1]) | pKd (CCR5 (Homo sapiens) [2]) |
| --- | --- | --- |
| RANTES (from UniProt P13501) | 9.40 | – |
| eNAMPT (from UniProt P43490) | – | 5.30 |
